{"source": "patent US20150132307A1", "about": "(Hoffmann-La Roche, published 2015)", "binders": {"B1": {"name": "<TWEAK> 301chi (antibody, human IgG1, kappa, V domains shown)", "VH": "QSLEESGGGLVKPGASLTLTCTASGFTFNANYWICWVRQAPGKGLEWIACIYGGGNSGAYYASWATGRFTISRTSSTTVTLQMTSLTAADTATYFCARGPISRDLWGPGTLVTVSL", "VL": "DVVMTQTPASVSEPVGGTVTIKCQASQSIYSSLAWYQQKPGQPPKLLIYDAFDLASGVSSRFTGSGSGTQFTLTISDLECADAATYYCQSTDYGNSWDGNPFGGGTEVVVTR"}, "B2": {"name": "<TWEAK>305 (antibody 27) -Fab (Fab, V domains shown)", "VH": "QVQLVQSGAEVKKPGSSVKVSCKASGFDFSTYYMSWVRQAPGQGLEWMGTVYVRQGTTYYASWLNGRVTITADESTSTAYMELSSLRSEDTAVYYCARGGYNYDDAFVIWGQGTLVTVSS", "VL": "DIQMTQSPSSVSASVGDRVTITCQASQNIYSNLAWYQQKPGKAPKLLIYTASYLASGVPSRFSGSGSGTDYTLTISSLQPEDFATYYCQTAYYNSRPDTVAFGGGTKVEIK"}}, "key": {"[1]": {"target": "T1, Human recombinant soluble TWEAK (Example 6) (human, UniProt O43508 99-249, limits assumed)", "T1 sequence": "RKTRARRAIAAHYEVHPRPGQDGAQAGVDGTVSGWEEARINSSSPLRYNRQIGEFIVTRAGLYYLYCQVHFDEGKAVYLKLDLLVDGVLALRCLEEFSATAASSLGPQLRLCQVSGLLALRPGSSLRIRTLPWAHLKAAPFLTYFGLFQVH", "test": "cell-based or functional assay"}, "[2]": {"target": "T2, Biotinylated human soluble TWEAK (amino acids 99-249 of SEQ ID NO: 68) (human, UniProt O43508 99-249, biotinylated)", "T2 construct": "also called Human TWEAK", "T2 sequence": "T1 sequence", "test": "SPR (Biacore 2000), biotinylated soluble TWEAK on streptavidin chip, antibody 100 nM as analyte, 25 C", "procedure": "A Biacore 2000 instrument was used with a Biacore streptavidin coated sensor mounted into the system. The system buffer HBS-ET (10 mM HEPES pH 7.4, 150 mM NaCl, 1 mM EDTA, 0.05% Tween® 20) was used at a flow rate of 100 μl/min. The sample buffer was the system buffer. Biotinylated human soluble TWEAK (amino acids 99-249 of SEQ ID NO: 68) and biotinylated murine soluble TWEAK (amino acids 81-225 of SEQ ID NO: 69) was immobilized on different flow cells on the SA sensor at 150 RU each. The flow cell FC1 was used as a blank reference cell. Each antibody was injected into the system as an analyte at 100 nM at 100 μl/min for 2 min association time. The dissociation of the immunecomplexes were monitored for 5 min. The sensor surface was washed with HBS-ET for 10 seconds and regenerated using 2×2 minutes injections with 10 mM glycine pH 2.25. This procedure was done at 25° C. The kinetically rate limiting step of the complex dissociation phase in the interval [240 s-300 s] was taken to calculate the dissociation rate kd [1/s] (Biacore Evaluation Software 4.0). According to the equation t1/2 diss=ln(2)/(60×kd), the half-life of the immunocomplexes in minutes was calculated."}, "[3]": {"target": "T3, human Flag-tagged soluble TWEAK (amino acids 106-249) (human, UniProt O43508 106-249)", "T3 construct": "The sentence gives amino acids 106-249 without naming the entry; also called Human TWEAK; not shown: Flag tag", "T3 sequence": "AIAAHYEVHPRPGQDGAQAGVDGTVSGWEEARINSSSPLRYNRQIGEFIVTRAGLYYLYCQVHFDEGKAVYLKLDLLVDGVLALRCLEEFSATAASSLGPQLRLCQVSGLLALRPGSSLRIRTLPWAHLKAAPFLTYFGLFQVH", "test": "receptor interaction ELISA: Flag-TWEAK 2.5 ng/ml preincubated with antibody, then on coated human Fn14:Fc (competitor m21)", "procedure": "96-well Maxisorp® plates (Nunc) were coated with 100 μl 1 μg/ml human Fn14:Fc (extracellular domain of human Fn14 (amino acids 1-75 of SEQ ID NO: 98) fused to Fc portion of human IgG1) in PBS per well for 1.5 h at room temperature and blocked with a solution of 5% FBS in PBS for 30 minutes at room temperature under shaking. […] After washing the Fn14-coated plate once with wash buffer (0.1% Tween® 20 in PBS), 100 μl of the TWEAK-antibody solution were transferred to each well and the plate was incubated for 1 h at room temperature, followed by four washes with wash buffer. Wells were filled with 100 μl of anti-FLAG-HRP detection antibody, diluted 1:5000 in blocking buffer, and incubated for 1 h at room temperature. After four more wash steps, the signal was developed by addition of 100 μl 3,3,5,5-Tetramethylbenzidine (TMB) solution for approximately ten minutes. The reaction was stopped by adding 100 μl of 1 N HCl, and absorbance measured at 450 nm (reference wavelength 620 nm)."}, "[4]": {"target": "T4, Mouse soluble TWEAK (untagged, Example 5) (mouse, UniProt O54907 105-249, limits assumed)", "T4 construct": "also called Murine TWEAK", "T4 sequence": "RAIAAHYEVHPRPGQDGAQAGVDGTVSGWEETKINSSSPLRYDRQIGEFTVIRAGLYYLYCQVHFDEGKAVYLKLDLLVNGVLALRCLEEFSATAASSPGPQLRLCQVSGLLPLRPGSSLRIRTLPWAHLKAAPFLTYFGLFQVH", "test": "receptor interaction ELISA: mouse soluble TWEAK 4 ng/ml preincubated with antibody, then on coated mouse Fn14:Fc (competitor m22)", "procedure": "Briefly, Maxisorp plates were coated with mouse Fn14:Fc (extracellular domain of mouse Fn14 (amino acids 1-75 of SEQ ID NO: 98) fused to Fc portion of human IgG1) as described above for human Fn14:Fc, followed by blocking and washing. […] After 1 h of incubation at room temperature and four washes, biotinylated anti-mouse TWEAK antibody at 125 ng/ml in blocking buffer was added for 1 h at room temperature, followed by another four wash steps. The TWEAK antibody was detected by incubation with streptavidin-HRP, diluted 1:5000 in blocking buffer, for 30 minutes at room temperature. Signal was developed and absorbance measured as described above."}, "[5]": {"target": "T5, Biotinylated TWEAK (Example 7) (Homo sapiens (Human), UniProt O43508 99-249, Biotinylated (sites not given), captured on a streptavidin chip. The active form is a soluble homotrimer; one protomer is given.)", "T5 sequence": "T1 sequence", "test": "Biacore crossblocking on immobilised biotinylated TWEAK; antibody 2 injected after saturating antibody 1 = TW-301chi (competitor m4), 100 nM each", "procedure": "(§1) Because of the individual biochemical properties of the TWEAK protein another method had to be developed using TWEAK as ligand. Biotinylated TWEAK was immobilized on the streptavidin-coated chip surface and epitope coverage of consecutively injected antibodies (antibody 1) was measured. The aim was to detect the relative binding levels of a secondary antibody (antibody 2) in the presence of an already bound primary antibody. From these relative binding levels a quotient was calculated (Ab2/Ab1, molar ratio given in %, table 3).\n(§2) 5 nM of biotinylated TWEAK was immobilized at 20 μl/min for 1 min on a streptavidin coated sensor flow cell. Primary and secondary mAbs were consecutively injected at 10 μl/min for 4 min into the system at 100 nM each until saturation of the respective TWEAK epitopes was achieved. As a reference an SA coated flow cell was used."}, "[6]": {"target": "T5, Biotinylated TWEAK (Example 7)", "test": "Biacore crossblocking on immobilised biotinylated TWEAK; antibody 2 injected after saturating antibody 1 = TW-304chi (competitor m5), 100 nM each", "procedure": "as §1, §2"}, "[7]": {"target": "T5, Biotinylated TWEAK (Example 7)", "test": "Biacore crossblocking on immobilised biotinylated TWEAK; antibody 2 injected after saturating antibody 1 = TW-305chi (competitor m6), 100 nM each", "procedure": "as §1, §2"}, "human Tweak-Fc [8]": {"target": "T6, human Tweak-Fc (human, UniProt O43508 106-249, limits assumed)", "T6 construct": "not shown: Fc part", "T6 sequence": "T3 sequence", "test": "SPR (BIAcore T100), TWEAK ligand (Tweak-Fc) amine-coupled on C1 chip, Fab as analyte, 25 C"}, "human Tweak-Fc [9]": {"target": "T6, human Tweak-Fc", "test": "SPR (BIAcore T100), TWEAK ligand (Tweak-Fc) amine-coupled on C1 chip, Fab as analyte, 25 C, 1:1 model"}, "human Tweak-Fc [10]": {"target": "T6, human Tweak-Fc", "test": "SPR (BIAcore T100), TWEAK ligand (Tweak-Fc) amine-coupled on C1 chip, Fab as analyte, 25 C, apparent KD, 1:1 model", "procedure": "Around 100 resonance units (RU) of TWEAK was immobilized on the C1 chip surface at pH 5.0 using an amine coupling kit supplied by the GE Healthcare. The sample and system buffer was PBS-T (10 mM phosphate buffered saline including 0.05% Tween20) pH 7.4. Association was measured by injection the bispecific antibody in various concentrations in solution for 3 min at a flow of 30 μl/min starting with 50 nM in 1:1 dilutions. The dissociation phase was monitored for up to 10 min and triggered by switching from the sample solution to running buffer. The surface was regenerated by three times 30 sec. washing with a 3M MgCl2 solution at a flow rate of 30 μl/min. Bulk refractive index differences were corrected by subtracting the response obtained from a blank-coupled surface. Blank injections are also subtracted (=double referencing). For calculation of apparent KD and other kinetic parameters the Langmuir 1:1 model was used."}}, "data": [{"binder": "B1", "values": [{"measurement": "Inhibition of IL-8 Secretion IC50 [ng/ml] (A375 cells)", "setting": "[1]", "result": 121, "unit": "ng/mL"}, {"measurement": "t/2 diss [min] 25° C.", "setting": "[2]", "result": 110, "unit": "min"}, {"measurement": "IC50", "setting": "[3]", "result": 2.8, "unit": "ng/mL"}, {"measurement": "IC50", "setting": "[4]", "result": 6.4, "unit": "ng/mL"}, {"measurement": "MR % (Ab2/Ab1, molar ratio)", "setting": "[5]", "result": 0, "unit": "%"}, {"measurement": "MR % (Ab2/Ab1, molar ratio)", "setting": "[6]", "result": 0, "unit": "%"}, {"measurement": "MR % (Ab2/Ab1, molar ratio)", "setting": "[7]", "result": 0, "unit": "%"}]}, {"binder": "B2", "values": [{"measurement": "T½", "setting": "human Tweak-Fc [8]", "result": 2.72, "unit": "h"}, {"measurement": "koff", "setting": "human Tweak-Fc [9]", "result": "7.09e-05", "unit": "s⁻¹"}, {"measurement": "kon", "setting": "human Tweak-Fc [9]", "result": "4.72e+06", "unit": "M⁻¹ s⁻¹"}, {"measurement": "Kd", "setting": "human Tweak-Fc [10]", "result": 15, "unit": "pM"}]}]}
